Residue numbers refer to the chain shown, from its start. One block for each binder: values may come before it.
Experiments:
[1] = biological target: T1, hFzd5 CRD-Xtal (hFzd5_Q13467_27-152) (human, UniProt Q13467 27-152); experiment: size-exclusion chromatography of the Fzd CRD_Xtal:Fab mixture
T1 construct: complex incubated with carboxypeptidase A and B before crystallisation
T1 sequence: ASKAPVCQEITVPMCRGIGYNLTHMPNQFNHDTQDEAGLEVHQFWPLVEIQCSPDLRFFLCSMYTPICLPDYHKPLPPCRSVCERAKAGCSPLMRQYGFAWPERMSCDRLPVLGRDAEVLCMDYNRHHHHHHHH
Description: (§1) Purfied Fzd CRD_Xtal and Fab binders were mixed at 1.1:1 molar ratio (little excess of the smaller molecular weight protein), and incubated with carboxy-peptidase A and B at a w/w ratio of 100:1 for over-night at 4° C. Complex formation was confirmed by observation of a single-major peak on SuperdexS200 Increase (10/300 GL) column pre-equilibrated in HBS. Fractions containing complexes were further checked by SDS-PAGE, and concentrated to a range from 10 to 55 mg/mL for crystallization screens. Initial crystallization screen, using commercially available MCSG1, MCSG2, MCSG3, MCSG4, PACT (Molecular Dimensions), PEGs I, and PEGs II (Qiagen) screen, and optimization by grid-screens or microseed matrix screen [MMS; Microseed matrix screening for optimization in protein crystallization: what have we learned? D'Arcy, A., Bergfors, T., Cowan-Jacob S. W., and Marshd, M. Acta Cryst. F70, 1117-1126 (2014)]. were performed using Mosquito (TTP LabTech) liquid handler, and equilibrated at 18° C. inside an EchoTherm incubator (Torrey Pines Scientific). 96-well plate crystal screening experiments were periodically monitored manually via a DiscoveryV20 stereomicroscope (Zeiss), and crystals were frozen for data collection by plunging into liquid nitrogen in the presence of various cryo-protectants (typically 15 to 30% v/v of glycerol or ethyleneglycol). X-ray diffraction datasets were collected at the Berkeley Center for Structural Biology at the Advanced Light Source (ALS), Berkeley CA, and processed with XDS [Kabsch, W. XDS. Acta Cryst. D66, 125-132 (2010)], and xdsme [Legrand, P. XDSME: XDS Made Easier (2017) GitHub repository, https://github-.com/legrandp/xdsme DOI 10.5281/zenodo.837885]. programs. Structure of Fzd:Fab complexes were determined by molecular replacement method using Phaser with constant and variable domains of related Fabs are template [Phaser crystallographic software. A. J. McCoy, R. W. Grosse-Kunstleve, P. D. Adams, M. D. Winn, L. C. Storoni, and R. J. Read. J Appl Crystallogr 40, 658-674 (2007)], followed by refinement and validation by MolProbity as implemented in Phenix [PHENIX: a comprehensive Python-based system for macromolecular structure solution.

[2] = biological target: T2, Fzd7 cysteine rich domain (CRD), C-terminally biotinylated (human, UniProt O75084 36-165); experiment: BLI; **=Kd 100-2000 nM
Description: (§2) Binding kinetics of antibody fragments to a variety of Fzd cysteine rich domain (CRD) protein targets (Fzd1, Fzd2, Fzd3, Fzd4, Fzd5, Fzd6, Fzd7, Fzd8, Fzd9 and/or Fzd10 CRDs) was determined by bio-layer interferometry (BLI) using Octet Red 96 (PALL ForteBio, Fremont, CA) instruments at 30° C., 1000 rpm with streptavidin (SA) biosensors. C-terminal biotinylated Fzd CRD recombinant protein was diluted to 20 nM in the running buffer (PBS, 0.05% Tween-20, 0.5% BSA, pH 7.2) and captured to the SA biosensor until coupling length reached 0.2 nm. Following capture of the Fzd CRD, the SA biosensor with captured biotinylated-Fzd CRD was dipped into wells containing the relevant antibody fragment at […] (0, 1.37, 4.12, 12.4, 37, 111.1, 333.3, 1000 nM) in running buffer, plus a well with only running buffer as a reference channel. […] was determined by global fitting, 1:1 binding model according to manufacturer recommended settings.
(§3) Table 1B provides clone IDs, the sequence identifier number of the antibody heavy chain fragment and/or light chain fragment, if present, for illustrative clones. In certain embodiments, the Fzd binding domain is an Fab or was derived from an Fab, so the heavy chain of Table 1B includes VH and CH1 sequence, but not CH2 or CH3 sequences. In certain embodiments, the Fzd binding domain is a VHH or sdAb® or was derived from a VHH or sdAb, so Table 1B includes the VHH domain. […] The Kd values were determined by BLI as described above. Blank entries denote that the binding to the specific Fzd receptor has not yet been determined. The entry of "n.b." indicates no binding.

[3] = biological target: T3, Fzd1 cysteine rich domain (CRD), C-terminally biotinylated (human, UniProt Q9UP38 101-230); experiment: BLI; **=Kd 100-2000 nM
Description: as §2, §3

[4] = biological target: Fzd2 cysteine rich domain (CRD), C-terminally biotinylated (human, UniProt Q14332 24-155); experiment: BLI; **=Kd 100-2000 nM
Description: as §2, §3

[5] = biological target: hFzd1 CRD-Xtal (hFzd1_Q9UP38_101-230) (human, UniProt Q9UP38 101-230); experiment: size-exclusion chromatography of the Fzd CRD_Xtal:Fab mixture
Description: as §1

Frizzled 6 = biological target: T4, Frizzled 6 (human, UniProt O60353 19-145, limits assumed); experiment: phage ELISA on immobilized antigen (initial binding)
T4 construct: the antigen of the phage ELISA is only called 'target antigen'; also called Fzd6; Fz6
T4 sequence (looked up): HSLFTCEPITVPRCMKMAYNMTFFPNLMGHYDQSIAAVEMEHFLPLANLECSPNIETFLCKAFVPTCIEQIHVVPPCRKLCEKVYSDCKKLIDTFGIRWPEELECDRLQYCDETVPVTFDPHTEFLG
Description: Detection of bound phage was determined […] by turnover of TMB substrate (Thermo Fisher Scientific, Waltham, MA) at […] by anti-M13-HRP antibody (GE Healthcare, Pittsburgh, PA). Clones were identified as binding to a Fzd receptor when the fold OD 450 nm over background was greater than a threshold level.

[6] = biological target: T2, Fzd7 cysteine rich domain (CRD), …; experiment: BLI; *=Kd <100 nM
Description: as §2, §3

[7] = biological target: T3, Fzd1 cysteine rich domain (CRD), …; experiment: BLI; *=Kd <100 nM
Description: as §2, §3

[8] = biological target: T3, Fzd1 cysteine rich domain (CRD), …; experiment: BLI; **=Kd >100 nM
Description: as §2
One antibody fragment, clone 001S-A04, was selected for alanine-scanning mutagenesis of CDRs, and the respective Fzd1 binding affinities of the various mutants were determined by Octet BLI as described in Example 1.

[9] = biological target: T5, hFzd3 CRD-Xtal (hFzd3_Q9NPG1_23-148) (human, UniProt Q9NPG1 23-148); experiment: size-exclusion chromatography of the Fzd CRD_Xtal:Fab mixture
T5 construct: complex incubated with carboxypeptidase A and B before crystallisation
T5 sequence: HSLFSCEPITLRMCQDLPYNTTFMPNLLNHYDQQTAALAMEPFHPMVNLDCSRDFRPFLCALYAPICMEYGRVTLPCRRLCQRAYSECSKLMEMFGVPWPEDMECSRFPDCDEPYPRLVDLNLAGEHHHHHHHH
Description: as §1

B2: 001S-G02 (Fab, V domains shown)
VH: QVQLQESGPGLVKPSETLSLTCTVSGGAISGTSYFWGWIRQPPGKGLEWIGSIYYTGNTYYNPSLKSRLTVSVDTSKNQFSLNLNSVTAADTATYYCARIGIAVAAPVDHWGQGTLVTVSS
VL: EIVLTQSPATLSLSPGEGATLSCRASQSVGTYLTWYRQKPGQAPRLLIYDASNRATGIPARFSGSGAGTDFTLKISRVEAEDVGVYYCMQATQFPLTFGQGTKVEIKR
Kd [2]: 100 to 2000 nM | Kd [3]: 100 to 2000 nM | Kd [4]: 100 to 2000 nM

B5: 001S-H02 (Fab, V domains shown)
VH: QVQLQESGPGLVKPSETLSLTCTVSGGSISSSSYYWGWIRQHPGKGLEWIGYIYYSGSTYYNPSLKSRVTISVDTSKNQFSLKLNSVTAADTAVYYCARATYGGDAFDIWGQGTMVTVSS
VL: QSVVTQPPSVSGAPGQRVTISCTRSSSNIGAGYDVHWYQQHPGTAPKLLIFGNSIRPSGVPDRFSGSKSGTSATLGITGLQTGDEADYYCGTWDSSLSAWVFGGGTKLTVLG
Kd [2]: 100 to 2000 nM | Kd [3]: 100 to 2000 nM | Kd [4]: 100 to 2000 nM

B6: 001S-E02 (Fab, V domains shown)
VH: QVQLQESGPGLVKPSETLSLTCTVSGGSISGNNYYWGWIRQPPGKGLEWIGSIYFTGGTYYNPSLKSRVTISVDTSKNQFSLKLSSVTAADTAVYYCARVMLITDAFDIWGQGTMVTVSS
VL: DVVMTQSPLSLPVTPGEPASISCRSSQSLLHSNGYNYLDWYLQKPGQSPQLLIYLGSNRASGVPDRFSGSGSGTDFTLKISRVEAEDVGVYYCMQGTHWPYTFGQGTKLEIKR
Kd [4]: 100 to 2000 nM | Kd [6]: < 100 nM | Kd [7]: < 100 nM

B7: 001S-A03 (Fab, V domains shown)
VH: QLQLQESGPGLVKPSQTLSLTCTVSGGSISSGGYYWSWIRQHPGKGLEWIGYIYYSGSTYYNPSLKSRVTISVDKSKNQFSLKLSSVTAADTAVYYCARVRDYYDSSGYYYDYFDYWGQGTLVTVSS
VL: DIQLTQSPSSLSASVGDRVTITCRASRSISSYFNWYQQKPGKAPKLLIYAASSLQSGVPSRFSGSRSGTDFTLTISSLQPEDFATYYCQQADTFPPTFGQGTRLEIKR
Kd [2]: 100 to 2000 nM | Kd [4]: 100 to 2000 nM | Kd [7]: < 100 nM

B8: 001S-A04 mutant VHT6A (Fab, V domains shown)
VH: EVQLVQSGAEVKKPGASVKVSCKASGYTFTSYGISWVRQAPGQGLEWMGWISAYNGNTNYAQKLQGRVTMTTDTSTSTAYMELRSLRSDDTAVYYCASSKEKAAYYYGMDVWGQGTTVTVSS
VL: QAVVLQEPSLSVSPGGTVTLTCGLSSGSVSTNYYPSWYQQTPGQAPRTLIYYTNTRSSDVPERFSGSIVGNKAALTITGAQPDDESVYFCLLYLGRGIWVFGGGTKLTVLG
KD [8]: > 100 nM

B9: 001S-A04 mutant VLW9A (Fab, V domains shown)
VH: B8 VH with A104T
VL: B8 VL with W99A
KD [8]: > 100 nM

B10: 001S-A04 mutant VHY7A (Fab, V domains shown)
VH: B8 VH with A104T, Y105A
VL: B8 VL
KD [8]: > 100 nM

B11: 001S-A04 mutant VHY9A (Fab, V domains shown)
VH: B8 VH with A104T, Y107A
VL: B8 VL
KD [8]: > 100 nM

Next, values leading:

binding result [1]: binds
B1: 4A12 Fab (Fab, V domains shown)
VH: QVQLQQSGPELVKPGASVKLSCKASGYTFTNYDINWVKQRPGQGLEWIGWIYPRDGSTKYNEKFKGKATLTVDTSSSTAYMELHSLTSEDSAVYFCVRSAWGFAYWGQGTLVTVSA
VL: DIVMTQSHKFMSTSVGDRVSITCKASQDVGTAVAWYQQKPGQSPKLLIYWASTRHTGVPDRFTGSGSGTDFTLTINNVQSEDLADYFCQQYSTYPLTFGAGTKLELKR
notes: heavy chain with C-terminal hexa-histidine tag; carboxypeptidase A and B treated in the complex

binding result [5]: binds
B3: R2M9 (003S-E07) Fab (Fab, V domains shown)
VH: QVQLVQSGAEVKKPGSSVKVSCKASGYTFTNNFMHWVRQAPGQGLEWMGWINPNSGGTKYAQKFQGRVTITADESTSTAYMELSSLRSEDTAVYYCARSVGEVGATMLGIGVWYWFDPWGQGTLVTVSS
VL: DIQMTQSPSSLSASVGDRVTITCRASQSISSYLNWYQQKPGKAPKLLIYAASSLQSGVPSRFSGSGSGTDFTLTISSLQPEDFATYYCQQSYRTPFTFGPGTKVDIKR
notes: as for B1

binding result (Frizzled 6): binds
B4: 004S-E09 (antibody, V domains shown)
VH: QVQLVQSGAEVKKPGASVKVSCKASGDTFSNYVISWVRQAPGQGLEWMGRISAYNGYKSYAQNFQGRVTMTRDTSTSTVYMELSSLRSEDTAVYYCARSSGYVGWFDPWGQGTLVTVSS
VL: not shown

binding result [9]: binds
B12: 029S-E03 Fab (Fab, V domains shown)
VH: QVQLVQSGAEVKKPGASVKVSCKASGYTFTGYYMHWVRQAPGQGLEWMGWINPNSGNTGYAQKFQGRVTMTRDTSTSTVYMELSSLRSEDTAVYYCARSYYGVIDAFDIWGQGTMVTVSS
VL: DIQMTQSPSSLSASVGDRVTITCRASQSISSYLNWYQQKPGKAPKLLIYAASSLQTGVPSRFSGSGSGTDFTLTISSLQPEDFATYYCQQSFRLPLTFGQGTKVEIKR
notes: as for B1

— patent US12006368 (SURROZEN OPERATING, dated 2024)
